This data set is described as follows: soluble on expression in E. coli; label from the status in PepcDB or PDB records.
Take “MPVLHNRISNDALKAKMLAESEPRTTISFYKYFHIADPKATRDALYQLFTALNVFGRVYLAHEGINAQISVPASNVETFRAQLYAFDPALEGLRLNIALDDDGKSFWVLRMKVRDRIVADGIDDPHFDASNVGEYLQAAEVNAMLDDPDALFIDMRNHYEYEVGHFENALEIPADTFREQLPKAVEMMQAHKDKKIVMYCTGGIRCEKASAWMKHNGFNKVWHIEGGIIEYARKAREQGLPVRFIGKNFVFDERMGERISDEIIAHCHQCGAPCDSHTNCKNDGCHLLFIQCPVCAEKYKGCCSEICCEESALPPEEQRRRRAGRENGNKIFNKSRGRLNTTLCIPDPTELEHHHHHH”: the “soluble on expression in E. coli” value is given as “soluble”.

Regarding “LKKKVGIISLGCPKNLVDSEIMLGLLKKNDFEITSDSEEANVIIVNTCGFIESAKEESINTILEMANYKNKNCEMLIVAGCLAQRYKDEIIKEMPEVDAVVGVSGYDEIAKVIEEFYSKKNDKNDKEKAVFHKDTLSVEYLNNERLLSTNSGYAYLKISEGCDNRCTYCAIPYIRGPYRSRKMEDIISEAEFLAGKGVKEVILVAQDVTVYGKDLYGQKKLVELVREVSGIEGIEWIRLLYTYPEEIDEELIKEIANNEKVVKYLDIPIQHASDKILKLMGRRSTSEGIRNILDRLRAEVPDIVLRTSLIVGFPGEDEKDFKILYDFVRKYEFDRLGVFTYSREEGTPAYDLKPQIKKSVKESRRNDIMQLQKEIVQRKNESRLEKVYKTLVEGVSEDGIFYYGRTYAEAPDIDGSVYFTSAEPLKFGEFVNVKVLNIDDYDLIGEVINESSK”, the “soluble on expression in E. coli” value is “soluble”. Next, “MGSDKIHHHHHHMYVAVKGGEKAIRAAHALQEQKRRGDGRLPELSVEQIGDQLSLAVDRVMTEGGIADRELAALALKQASGDNIEAIFLLRAYRTTLPRLAVSEPINTAEMRLERRISAVYKDIPGGQLLGPTYDYTHRLLDFTLLANGEAPSVQQADGEAEPTPHVFSLLTQQGLAKTEEDRGTPPDDITRTPPVYPCSRSSRLQQLMRGDEGYLLALAYSTQRGYGRNHPFAGEIRSGYVQVEIVPEELGFSVNIGELLLTECEMVNGFVAPQEEPPHFTRGYGLTFGMSERKAMAMALVDRALQAPDYDEEIAGPAQDEEFVLAHADNVEAAGFVSHLKLPHYVDFQAELALLKRLQRENERG”: “not soluble”; “SVLQVLHIPDERLRKVAKPVEEVNAEIQRIVDDMFETMYAEEGIGLAATQVDIHQRIIVIDVSENRDERLVLINPELLEKSGETGIEEGCLSIPEQRALVPRAEKVKIRALDRDGKPFELEADGLLAICIQHEMDHLVGKLFMDYLSPLKQQRIRQKVEKLDRLKARAPNSSSVDKLAAALEHHHHHH”: “soluble”; “MHSTPKRVLLAGATGLTGEHLLDRILSEPTLAKVIAPARKALAEHPRLDNPVGPLAELLPQLDGSIDTAFCCLGTTIKEAGSEEAFRAVDFDLPLAVGKRALEMGARHYLVVSALGADAKSSIFYNRVKGELEQALQEQGWPQLTIARPSLLFGPREEFRLAEILAAPIARILPGKYHGIEACDLARALWRLALEEGKGVRFVESDELRKLGK”: “soluble”. The same measure for “SDLGAITKYSALHAKPNGLILQYGTAGFRTKAEHLDHVMFRMGLLAVLRSKQTKSTIGVMVTASHNPEEDNGVKLVDPLGEMLAPSWEEHATCLANAEEQDMQRVLIDISEKEAVNLQQDAFVVIGRDTRPSSEKLSQSVIDGVTVLGGQFHDYGLLTTPQLHYMVYCRNTGGRYGKATIEGYYQKLSKAFVELTKQASCSGDEYRSLKVDCANGIGALKLREMEHYFSQGLSVQLFNDGSKGKLNHLCGADFVKSHQKPPQGMEIKSNERCCSFDGDADRIVYYYHDADGHFHLIDGDKIATLISSFLKELLVEIGESLNIGVVQTAYANGSSTRYLEEVMKVPVYCTKTGVKHLHHKAQEFDIGVYFEANGHGTALFSTAVEMKIKQSAEQLEDKKRKAAKMLENIIDLFNQAAGDAISDMLVIEAILALKGLTVQQWDALYTDLPNRQLKVQVADRRVISTTNAERQAVTPPGLQEAINDLVKKYKLSRAFVRPSGTEDVVRVYAEADSQESADHLAHEVSLAVFQLAGGIGERPQPGF”: “not soluble”; for “MKKIHPSAVIEEGAQLGDDVVIEAYAYVSKDAKIGNNVVIKQGARILSDTTIGDHSRVFSYAIVGDIPQDISYKEEQKSGVVIGKNATIREFATINSGTAKGDGFTRIGDNAFIMAYCHIAHDCLLGNNIILANNATLAGHVELGDFTVVGGLTPIHQFVKVGEGCMIAGASALSQDIVPFCLAEGNRASIRSLNLVGIRRRFDKDEVDRLSRAFKTLFRQGDLKENAKNLLENQESENVKKMCHFILETKRGIPVYRGKNNA”: “soluble”; for “MTENKGIMLAKSVQKHAGRAKEKILQNLGKVDRTADEIFDDHLNNFNRQQASANRLQKEFNNYIRCVRAAQAASKTLMDSVCEIYEPQWSGYDALQAQTGASESLWADFAHKLGDQVLIPLNTYTGQFPEMKKKVEKRNRKLIDYDGQRHSFQNLQANANKRKDDVKLTKGREQLEEARRTYEILNTELHDELPALYDSRILFLVTNLQTLFATEQVFHNETAKIYSELEAIVDKLATESQRGS”: “soluble”. Consider “MKVEKEFPLMNFSLRRLPLFILIKTRKQTIEMNLRKKGHGIFFSRFGVFISKKKNHINICTLLLTKHPYTKGFPRQNVVETILFRRNSKTHFGRPATRRRPLGEREVNPSARSLG”, for which the “soluble on expression in E. coli” value was “soluble”. The same measure for “MGQSEPIVLVIFTNKDNKSDKPNDKLISETAKSVMKEFAAGSKNAAKELNDLEKKYNAHIGVYALDTKSGKEVKFNSDKRFAYASTSKAINSAILLEQVPYNKLNKKVHINKDDIVAYSPILEKYVGKDITLKALIEASMTYSDNTANNKIIKEIGGIKKVKQRLKELGDKVTNPVRYEIELNYYSPKSKKDTSTPAAFGKTLNKLIANGKLSKENKKFLLDLMLNNKSGDTLIKDGVPKDYKVADKSGQAITYASRNDVAFVYPK”: “soluble”; for “PKISQLVAPFELTQNNNDKAILLIHGLTDSPFSFHDLSQFFYQQGFTVRTLLLPGHGVAPSELLNTDYQAWQQAATFAIDQTLNDYQQVYLGGLSTGGALIFNYLMQQKQVDEKIKGLFMWSPATKAKSDLAWLAQYIDGIPFVDWIDLDADIDFAKYESFPYNAGAQVHALMNLVVGEGANASRQMHDIPLFVVASEHDQTIDTAHTLQLVQQWQLAS”: “not soluble”; for “MGSDKIHHHHHHMSVPRWVAERTGLPRTAHDAGTIGAAGCTVNRFAVALMPDSGGHPRKPIAGVDAPPPHLLLVARRMTRPGEHMALTTYTPVITVFAAGREWTLERAADLQTLWDNMVEADFGDDERLPYWTELWPSSLVLADWLHDNAGRIRGRTCLDMGCGLGLCSLVGQWLGARVTGMDYEPEALFHARRNAERNRVPQPLWTVMDWRAPAVRRHAADLVWGGDIMYERRFVTPVLDFLDHVLAPCGAAWVAEPGRTVYNHFRETLDARGWHARRVLSSETASLYEQPESVTVHLWEITR”: “not soluble”.

For “MSLDLHYKQFLLLNLYRQDKCLLAEVLLKDSSEFSFGVKFFNYGQLIAYIDSLNSNVYNASITENSFFMTFFRSYIIENTSHKNIRFFLENVECPFYLRHNEVQEFMFAMTLFSCGNFDQSYEIFQLHDYPEAINDKLPTFLEDLKSENYHGDSIWKDLLCTFTVPYRHSAFYYQLSLLFDRNNSQEFALKCISKSAEYSLKEIQIEELQDFKEKQHIHYLNLLIHFRMFEEVLDVLRLGHECLSDTVRTNFLQLLLQEDIYSRDFFSTLLRLCNAHSDNGELYLRTVDIKIVDSILSQNLRSGDWECFKKLYCFRMLNKSERAAAEVLYQYILMQADLDVIRKRKCYLMVINVLSSFDSAYDQWILNGSKVVTLTDLRDELRGEGHHHHHH”, the “soluble on expression in E. coli” value is “not soluble”. Next, “MHHHHHHSSGVDLGTENLYFQSMGAGRRESEPRPTSARQLDGIRNIVLSNPKKRNTLSLAMLKSLQSDILHDADSNDLKVIIISAEGPVFSSGHDLKELTEEQGRDYHAEVFQTCSKVMMHIRNHPVPVIAMVNGLATAAGCQLVASCDIAVASDKSSFATPGVNVGLFCSTPGVALARAVPRKVALEMLFTGEPISAQEALLHGLLSKVVPEAELQEETMRIARKIASLSRPVVSLGKATFYKQLPQDLGTAYYLTSQAMVDNLALRDGQEGITAFLQKRKPVWSH”: “soluble”.

Source of the values: the DeepSol protein solubility set.
